The DeepSol protein solubility set

Assay: soluble on expression in E. coli; label from the status in PepcDB or PDB records

Row | Sequence | soluble on expression in E. coli
1 | MASQEFQGFLDSSLLNEEDCRQMIYRSEREHDARMVGVNVDQHFTSQYRKVLTTWMFCVCKDLRQDNNVFPLAVALLDELFLSTRIDRENYQSTAAVALHIAGKVRAYMPIKATQLAYLCGGATTADKLLTLEVKSLDTLSWVADRCLSTDLICYILHIMHAPREDYLNIYNLCRPKIFCALCDGRSAMKRPVLITLACMHLTMNQKYDYYENRIDGVCKSLYITKEELHQCCDLVDIAIVSFDENYFKINA | soluble
2 | MASQPNSSAKKKEEKGKNIQVVVRCRPFNLAERKASAHSIVECDPVRKEVSVRTGGLADKSSRKTYTFDMVFGASTKQIDVYRSVVCPILDEVIMGYNCTIFAYGQTGTGKTFTMEGERSPNEEYTWEEDPLAGIIPRTLHQIFEKLTDNGTEFSVKVSLLEIYNEELFDLLNPSSDVSERLQMFDDPRNKRGVIIKGLEEITVHNKDEVYQILEKGAAKRTTAATLMNAYSSRSHSVFSVTIHMKETTIDGEELVKIGKLNLVDLAGSENIGRSGAVDKRAREAGNINQSLLTLGRVITALVERTPHVPYRESKLTRILQDSLGGRTRTSIIATISPASLNLEETLSTLEYAHRAKNILNKPEVNQKL | soluble
3 | MASQQQTVREWSGINTFAPATQTKLLELLGNLKQEDVNSLTILVMGKGGVGKSSTVNSIIGERVVSISPFQSEGPRPVMVSRSRAGFTLNIIDTPGLIEGGYINDMALNIIKSFLLDKTIDVLLYVDRLDAYRVDNLDKLVAKAITDSFGKGIWNKAIVALTHAQFSPPDGLPYDEFFSKRSEALLQVVRSGASLKKDAQASDIPVVLIENSGRCNKNDSDEKVLPNGIAWIPHLVQTITEVALNKSESIFVDKNLIDKLAAADHHHHHH | soluble
4 | MASRRSNAKSRDKPDKYSVLLPTYNERENLPLIVWLLVKYFGESGYNYEIIVIDDGSPDGTLQIAEQLQKIYGADKILLRPRAEKLGLGTAYIHGIKHATGNFVIIMDADLSHHPKFIPQFIEKQKEGGYDLVSGTRYRGDGGVYGWDLRRKLISRGANFVTQVLLRPGASDLTGSFRLYKKEVLEKLVEQCVSKGYVFQMEMIVRARQLGYTIGEVPISFVDRVYGESKLGGNEIVSFLKGLLTLFATT | not soluble
5 | MASSASDGTHERSAFRLSPPVLSGAMGPFMHTGLYVAQSWRDYLGQQPDKLPIARPTIALAAQAFRDEIVLLGLKARRPVSNHRVFERISQEVAAGLEFYGNRRWLEKPSGFFAQPPPLTEVAVRKVKDRRRSFYRIFFDSGFTPHPGEPGSQRWLSYTANNREYALLLRHPEPRPWLVCVHGTEMGRAPLDLAVFRAWKLHDELGLNIVMPVLPMHGPRGQGLPKGAVFPGEDVLDDVHGTAQAVWDIRRLLSWIRSQEEESLIGLNGLSLGGYIASLVASLEEGLACAILGVPVADLIELLGRHCGLRHKDPRRHTVKMAEPIGRMISPLSLTPLVPMPGRFIYAGIADRLVHPREQVTRLWEHWGKPEIVWYPGGHTGFFQSRPVRRFVQAALEQSGLLDAPRTQRDRSA | not soluble
6 | MASTQCVNIQKRDIIRGASDVSWFDVLLEKGACVTISAQDKPSVDLWLDDVIQESLIEGRHYCTKASTSDLKADARCPTQGEATMREEYLDGYVCKRSFSDRGWGNGCGLFGKGSIVGCAKATCGANDIIKSYSYDSPKVKYVIGAEVHQGKLLTNNSTDRIVKTTFTAESEKHTITIADYGSMDFTCRVVASAELSNIRMIELDGHMFNVHEDWLSDLPLPSKISGGSWHGMDRLVVFKEPHAVKMEIQACGDQRPAVFKSLVKAEEVTKTSNSYHLTGGHVDCRVSTLNLRMKGLTYQMCSSSFVWHKRPVATQHGTVAMEVKYKGSDAPCRIPVSVEKEGYNGKNFGNLITANPFAANNEAVVFLELEAPLGVSTIKVGGAVFQWKQEGSSIGKALEHHHHHH | not soluble
7 | MASYSSILVLSVCTIGALAVMEHNSYYPGGHSTSYYQPFQTDTYGSKYYNTESYGKYDEHGNNGKDSHYEPNYYNPIASYYHSYMPKYHGGHNDYYTKYNQYTPYYGGSHQQNYYEQPKHDDYHGGDHHYDMHK | not soluble
8 | MATAADSVYSIESPKAAKSLMLDVVHAGKRLVAVGDRGHILYSDDQGQTWVQAKVPTRQLLTAVYFVDDKRGWAVGHDAQVLASSDGGATWTRQFQDLKREAPLLDVWFKDTQTGYAVGAYGALLETSDGGQHWEDVSDRLDNEDQFHLNAIAQVKDSGLFIVGEQGSMFRSADDGQTWERLEGPYEGSLFGVIGTGQPATLLVYGLRGNLYRSTDFGSTWEQVELNAARGALEFGLSGATLLDDGSLVIVGNGGSVIRSTDHGQTFSVFNRADRISLSAVTAAGNGDLILAGQGGVRVSAATGAELGQLEHHHHHH | not soluble
9 | MATAAETSASEPEAESKAGPKADGEEDEVKAARTRRKVLSRAVAAATYKTMGPAWDQQEEGVSESDGDEYAMASSAESSPGEYEWEYDEEEEKNQLEIERLEEQLSINVYDYNCHVDLIRLLRLEGELTKVRMARQKMSEIFPLTEELWLEWLHDEISMAQDGLDREHVYDLFEKAVKDYICPNIWLEYGQYSVGGIGQKGGLEKVRSVFERALSSVGLHMTKGLALWEAYREFESAIVEAARLEKVHSLFRRQLAIPLYDMEATFAEYEEWSEDPIPESVIQNYNKALQQLEKYKPYEEALLQAEAPRLAEYQAYIDFEMKIGDPARIQLIFERALVENCLVPDLWIRYSQYLDRQLKVKDLVLSVHNRAIRNCPWTVALWSRYLLAMERHGVDHQVISVTFEKALNAGFIQATDYVEIWQAYLDYLRRRVDFKQDSSKELEELRAAFTRALEYLKQEVEERFNESGDPSCVIMQNWARIEARLCNNMQKARELWDSIMTRGNAKYANMWLEYYNLERAHGDTQHCRKALHRAVQCTSDYPEHVCEVLLTMERTEGSLEDWDIAVQKTETRLARVNEQRMKAAEKEAALVQQEEEKAEQRKRARAEKKALKKKKKIRGPEKRGADEDDEKEWGDDEEEQPSKRRRVENSIPAAGETQNVEVAAGPAGKCAAVDVEPPSKQKEKAASLKRDMPKVLHDSSKDSITVFVSNLPYSMQEPDTKLRPLFEACGEVVQIRPIFSNRGDFRGYCYVEFKEEKSALQALEMDRKSVEGRPMFVSPCVDKSKNPDFKVFRYSTSLEKHKLFISGLPFSCTKEELEEICKAHGTVKDLRLVTNRAGKPKGLAYVEYENESQASQAVMKMDGMTIKENIIKVAISNPPQRKVPEKPETRKAPGGPMLLPQTYGARGKGRTQLSLLPRALQRPSAAAPQAENGPAAAPAVAAPAATEAPKMSNADFAKLFLRK | soluble
10 | MATENPQTWALWLILSEMASDMQEDKKVAKILVLGPPKAGKTTLCTFLADFMEDGDTLKKGEDSGERERKFEFEFTSVYRPTKGVRIQEFETHEFFTEQEQNELGGTRRLEDSEIQLWDVSGDKKYEDCWPAIKENAEGVILVVNPEEHKGSDLQQWFYEFVEKENIDLSCVMVILNEQGAKKTNHEQISGFEILPKLRGVHHVAHHFGSEAMQVKMEVNSFMASVLKMDQRQMGSGVDHGLGYADEQEDDF | not soluble
11 | MATFKDFRNNVKPNWCPGCGDFSVQAAIQKAAANIGLEPEEVAIITGIGCSGRLSGYINSYGVHSIHGRALPLAQGVKMANKDLTVIASGGDGDGYAIGMGHTIHALRRNMNMTYIVMDNQIYGLTKGQTSPSSAVGFVTKTTPKGNIEKNVAPLELALSSGATFVAQGFSSDIKGLTKLIEDAINHDGFSFVNVFSPCVTYNKINTYDWFKEHLTSVDDIENYDSTDKQLATKTVIEHESLVTGIVYQDKETPSYESQIKELDDTPLAKRDIKITEDTFNALTEQFI | not soluble
12 | MATFYEVIVRVPFDVEEHLPGISDSFVDWVTGQIWELPPESDLNLTLVEQPQLTVADRIRRVFLYEWNKFSKQESKFFVQFEKGSEYFHLHTLVETSGISSMVLGRYVSQIRAQLVKVVFQGIEPQINDWVAITKVKKGGANKVVDSGYIPAYLLPKVQPELQWAWTNLDEYKLAALNLEERKRLVAQFLAESSQRS | soluble
13 | MATLEITDIALVQPSHQPLSNDQTLSLSHLDNDNNLHVSFRYLRVYSSSSSTVAGESPSAVVSASLATALVHYYPLAGSLRRSASDNRFELLCSAGQSVPLVNATVNCTLESVGYLDGPDPGFVERLVPDPTREEGMVNPCILQVTMFQCGGWVLGASIHHAICDGLGASLFFNAMAELARGATKISIEPVWDRERLLGPREKPWVGAPVRDFLSLDKDFDPYGQAIGDVKRDCFFVTDDSLDQLKAQLLEKSGLNFTTFEALGAYIWRAKVRAAKTEEKENVKFVYSINIRRLMNPPLPKGYWGNGCVPMYAQIKAGELIEQPIWKTAELIKQSKSNTSDEYVRSFIDFQELHHKDGINAGTGVTGFTDWRYLGHSTIDFGWGGPVTVLPLSNKLLGSMEPCFFLPYSTDAAAGSKKDSGFKVLVNLRESAMPEFKEAMDKFHKGEFALS | soluble
14 | MATPFDGSNDATESRLLQLGRERLDPILAQQSDALQTQLSNQGIKLGSAAYDRAMTQQALHANDATDQLILQGHGQAFAEGQAIRNQPINEITALLSGSQVSNPQAAAYTPSTIPTTDNAGIIANNYQQKMDAYNAQMSQASSLAGGLFGLGGKLISLSDDDAKKDKERLADITPEMGLWKFHYKGEPADAPMRLGLMASEVEKVRPDAVSRRPDGYRQVDYGKALSLGALEHHHHHH | not soluble
15 | MATPYVPVPMPIGNSASSFTNNRNQRSSSFGSVSTSSTSSKGQLEDSAVGSLKQTNVQDQMDSASSMCGSPLIRTKFTGTDSSIEYSARPREAEEQHPEAVNWEDRPSTPTILGYEVMEERAKFTVYKILVKKSPEESWVVFRRYTDFSRLNDKLKEMFPGFRLALPPKRWFKDNYNAEFLEDRQLGLQAFLQNLVAHKDIANCLAVREFLCLDDPPGPFDSLEESRAFCETLEETNYHLQRELLEKQKEVESLKKLLGEKQLHIDALETRIRTLSLEPGASLYVSRAEGGQILRVEPSVLQVNRDVLDEESRADHKPHFNSREAGSVIAGIEVAQLAYNAEDD | soluble
16 | MATRLNISFDSDLLESISSEFDLRAPNKEALRQLVFTLDGDYEPSIMQVLNLATGVGKTYLMAAFVEYLRRQGVGNVVIVTPGKTVQAKTVQNFTPGSPRYITGSVVPPEVVTPQDYSAWVARQNGAAQLSFGHEVPILAFIFNIQQLIAPKSTEGDTHGNTQDAMRRKPRRFDENAGVLFDYLKGLDDLVVIADESHLYGSSAIAFNAALKELDPAATIGLTASVDKKSDHVIYHYPLFRAIQDKYVKAPVLAFRKTGYGTDEASEEQQLRDALQLRSIKQVYYDSFAASENRKHVNAVVFVVCSDVDHATQVTELLRSPEYLGNDDAVLQVDSKHEDELTQRRLNELDRPHSPVLAVVSVNKLKEGWDVRNIAVVVTLRAMASEVLTQQTMGRGLRLPFGHYTGVWQIDQLDIIAHQSFTELLNAENVLHQFGLEEAVADLDKAQVEAAILKAAETATSPRLGTSLTDTGVIQPGDVAAHEAGVWLIGDSSNSDDLQAGIVPVGGENSTRTPSVGVREITDPAPEGGTGWELVSIERNPAFADVTYQFPVTTMTVQQPSIDLSEIGDDTIEQAARRVTSAGDVLLRKEIIAVLGKKLRAEDRESAEVDSVHVDEDDAKNALVKLVLNMSLVPKTEQTARYVAAFLVPKFMQSVMFSGWTVKSLDSARTELLKLIQNYTVETLRSTREVPSIHPKSMPSNGYTLPLGQKVHDQIETREQFVRSQVYGGWFKSLFAEESFDSFTGEYQLARLLNTSPGIVWWHRLHPQDQAFVFYNAKDRYFPDFVAMDVNGVHWIIEGKSERGRDDAQVQAKRKAAEALVRRLVAEDAYADQLWGYLIAYEQDIARADSWEDLKAFASPVNNAL | not soluble
